One series concerns C[C@H](N)C(=O)O. Description: purified protein, by the assay type.
Series [1] relates to Nc1ncnc2c1ncn2[C@@H]1O[C@H](COP(=O)(O)OP(=O)(O)OP(=O)(O)O)[C@@H](O)[C@H]1O. As to the kind of experiment: purified protein, by the assay type.

Results on 1 substance are retold here after patent publication US20080145840A1.

In the case of E. coli MurC (Escherichia coli K-12), the Michaelis-Menten constant (Km) is 44 µM in the series on C[C@H](N)C(=O)O (other: ITC, pH 8.0); 56 µM in the series with C[C@H](N)C(=O)O (other: Phosphate detection); 61 µM in series [1] (other: ITC, pH 8.0); 101 µM in series [1] (other: Phosphate detection).
